2 variants from IntAct's records for PubMed 16963558 can be followed below.

The labels stand for the following.
B1: Non-structural protein 1 (Influenza A virus (strain A/Puerto Rico/8/1934 H1N1)), P03496 (parent)
chain: MDPNTVSSFQVDCFLWHVRKRVADQELGDAPFLDRLRRDQKSLRGRGSTLGLDIETATRAGKQIVERILKEESDEALKMTMASVPASRYLTDMTLEEMSRDWSMLIPKQKVAGPLCIRMDQAIMDKNIILKANFSVIFDRLETLILLRAFTEEGAIVGEISPLPSLPGHTAEDVKNAVGVLIGGLEWNDNTVRVSETLQRFAWRSSNENGRPPLTPKQKREMAGTIRSEV

The first assay covers variants of B1. As to conditions: with p85b_human PIK3R2, O00459.
Sequence of p85b_human PIK3R2, O00459 (O00459 whole entry): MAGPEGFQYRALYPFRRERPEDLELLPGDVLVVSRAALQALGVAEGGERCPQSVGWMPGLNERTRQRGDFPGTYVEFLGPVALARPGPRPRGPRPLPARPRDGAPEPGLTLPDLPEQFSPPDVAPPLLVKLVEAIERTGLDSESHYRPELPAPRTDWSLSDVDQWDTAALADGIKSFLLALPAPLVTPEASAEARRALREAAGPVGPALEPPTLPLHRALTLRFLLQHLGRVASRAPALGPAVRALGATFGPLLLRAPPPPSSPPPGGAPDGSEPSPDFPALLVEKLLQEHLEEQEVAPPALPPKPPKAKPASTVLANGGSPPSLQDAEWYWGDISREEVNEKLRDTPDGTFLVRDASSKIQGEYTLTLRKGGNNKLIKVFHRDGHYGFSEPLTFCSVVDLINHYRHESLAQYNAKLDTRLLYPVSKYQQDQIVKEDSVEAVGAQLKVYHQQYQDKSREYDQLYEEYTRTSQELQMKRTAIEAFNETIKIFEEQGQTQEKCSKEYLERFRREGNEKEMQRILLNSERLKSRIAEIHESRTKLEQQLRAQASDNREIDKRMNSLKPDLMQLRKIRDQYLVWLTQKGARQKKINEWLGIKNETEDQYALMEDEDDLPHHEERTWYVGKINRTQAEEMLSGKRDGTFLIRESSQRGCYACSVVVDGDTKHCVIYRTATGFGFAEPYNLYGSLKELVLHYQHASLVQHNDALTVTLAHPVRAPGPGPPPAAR
As to M93A, the “effect of a mutation on the interaction” value was “disrupting interaction strength”. Y89F: the “effect of a mutation on the interaction” value is listed as “disrupting interaction strength”.

In a further assay the parent is B1. The conditions noted are these: with p85b_bovin PIK3R2, P23726.
Sequence of p85b_bovin PIK3R2, P23726 (P23726 whole entry): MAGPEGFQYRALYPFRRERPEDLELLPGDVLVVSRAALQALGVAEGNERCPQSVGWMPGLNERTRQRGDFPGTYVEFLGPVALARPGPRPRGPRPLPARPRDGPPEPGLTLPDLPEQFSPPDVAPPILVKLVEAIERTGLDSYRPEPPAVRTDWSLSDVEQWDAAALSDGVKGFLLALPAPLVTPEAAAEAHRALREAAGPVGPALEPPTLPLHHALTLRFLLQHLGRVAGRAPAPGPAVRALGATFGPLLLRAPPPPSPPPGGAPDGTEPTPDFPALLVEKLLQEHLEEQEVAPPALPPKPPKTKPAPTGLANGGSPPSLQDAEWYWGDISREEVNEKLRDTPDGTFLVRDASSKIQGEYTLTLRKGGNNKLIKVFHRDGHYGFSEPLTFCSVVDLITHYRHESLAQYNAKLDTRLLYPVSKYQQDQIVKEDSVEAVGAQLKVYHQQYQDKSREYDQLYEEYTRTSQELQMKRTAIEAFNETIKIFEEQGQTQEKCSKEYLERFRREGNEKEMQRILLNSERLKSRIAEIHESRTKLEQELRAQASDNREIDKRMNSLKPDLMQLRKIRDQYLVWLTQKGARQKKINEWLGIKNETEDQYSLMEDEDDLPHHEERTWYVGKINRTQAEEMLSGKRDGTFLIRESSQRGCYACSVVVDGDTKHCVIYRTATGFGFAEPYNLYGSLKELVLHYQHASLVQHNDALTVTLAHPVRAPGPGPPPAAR
Consider Y89F, for which the “effect of a mutation on the interaction” value is reported as “disrupting interaction strength”.
